# How the values were obtained:
# Experiment in all cases: cell_activity
# ZFN 63194 (synthetic) = conditions: pair with 63195, Hepa1-6, 40 ug/mL
# ZFN 63236 (synthetic) = conditions: pair with 63238, Hepa1-6, 40 ug/mL
# ZFN 60287 (synthetic) = conditions: pair with 60289, K562
# ZFN 63342 (synthetic) = conditions: pair with 63341, Hepa1-6, 40 ug/mL
# ZFN 63238 (synthetic) = conditions: pair with 63236, Hepa1-6, 40 ug/mL
# ZFN 63374 (synthetic) = conditions: pair with 63375, Hepa1-6, 40 ug/mL
# ZFN 63410 (synthetic) = conditions: pair with 63411, Hepa1-6, 40 ug/mL
# ZFN 63375 (synthetic) = conditions: pair with 63374, Hepa1-6, 40 ug/mL
# ZFN 63411 (synthetic) = conditions: pair with 63410, Hepa1-6, 40 ug/mL
# ZFN 63341 (synthetic) = conditions: pair with 63342, Hepa1-6, 40 ug/mL
# ZFN 63195 (synthetic) = conditions: pair with 63194, Hepa1-6, 40 ug/mL
sequence,measurement,setting,value
AAGGACTTGATATGAGAGGGTCCAACTT (double strand) [mouse KLKB1 63194 site],activity,ZFN 63194 (synthetic),89.8 % indel
CCGCTGAGTTCACAGGTTGCCCCATGGA (double strand) [mouse KLKB1 63236 site],activity,ZFN 63236 (synthetic),92.5 % indel
CGGAGCTCACCCTGGCCGAGTTGAGGCA (double strand) [human PCSK9 60287 site],activity,ZFN 60287 (synthetic),73.1 % indel
CTGCTCCTTGCACGAAGGTCACATTCAG (double strand) [mouse KLKB1 63342 site],activity,ZFN 63342 (synthetic),96.8 % indel
GCAGAGTGCTGGAAAATATCCATGGGGC (double strand) [mouse KLKB1 63238 site],activity,ZFN 63238 (synthetic),92.5 % indel
GGGAGCCATCTGTGGATAACCTTAAGGA (double strand) [mouse KLKB1 63374 site],activity,ZFN 63374 (synthetic),93.7 % indel
TCTTTAGGGGAGTGGCCATGGCAGGTCA (double strand) [mouse KLKB1 63410 site],activity,ZFN 63410 (synthetic),84.7 % indel
TGCATGCCATAGGTGATCCTAGTTGGGG (double strand) [mouse KLKB1 63375 site],activity,ZFN 63375 (synthetic),93.7 % indel
TTCACTTGCAGGCTGACCTGCCATGGCC (double strand) [mouse KLKB1 63411 site],activity,ZFN 63411 (synthetic),84.7 % indel
TTGACTTTGAAGGGGAAGAACTGAATGT (double strand) [mouse KLKB1 63341 site],activity,ZFN 63341 (synthetic),96.8 % indel
TTGTCGGTCTTAGAGATATTAAAGTTGG (double strand) [mouse KLKB1 63195 site],activity,ZFN 63195 (synthetic),89.8 % indel
